{"source": "patent US12534531", "about": "(MacroGenics, dated 2026)", "binders": {"B1": {"name": "DART H (bispecific antibody)", "chain 1": "EIVLTQSPATLSLSPGERATLSCRASESVDNYGMSFMNWFQQKPGQPPKLLIHAASNQGSGVPSRFSGSGSGTDFTLTISSLEPEDFAVYFCQQSKEVPYTFGGGTKVEIKGGGSGGGGQVQLVQSGAEVKKPGASVKVSCKASGYTFTNYGMNWVRQAPGQGLEWMGWINTYTGESTYADDFEGRFVFSMDTSASTAYLQISSLKAEDTAVYYCARESLYDYYSMDYWGQGTTVTVSSGGCGGGEVAALEKEVAALEKEVAALEKEVAALEKGGGDKTHTCPPCPAPEAAGGPSVFLFPPKPKDTLMISRTPEVTCVVVDVSHEDPEVKFNWYVDGVEVHNAKTKPREEQYNSTYRVVSVLTVLHQDWLNGKEYKCKVSNKALPAPIEKTISKAKGQPREPQVYTLPPSREEMTKNQVSLWCLVKGFYPSDIAVEWESNGQPENNYKTTPPVLDSDGSFFLYSKLTVDKSRWQQGNVFSCSVMHEALHNHYTQKSLSLSPGK", "chain 2": "DIVMTQTPLSLSVTPGQPASISCKSSQSLLHSDAKTYLNWLLQKPGQPPERLIYLVSELDSGVPDRFSGSGSGTDFTLKISRVEAEDVGVYYCWQGTHFPYTFGGGTKVEIKGGGSGGGGQVQLVQSGAEVKKPGASVKVSCKASGYSFTSYWMNWVRQAPGQGLEWIGVIHPSDSETWLDQKFKDRVTITVDKSTSTAYMELSSLRSEDTAVYYCAREHYGTSPFAYWGQGTLVTVSSGGCGGGKVAALKEKVAALKEKVAALKEKVAALKE", "chain 3": "not shown"}, "B2": {"name": "DART I (bispecific antibody, human IgG4 S228P)", "chain 1": "DIQMTQSPSSLSASVGDRVTITCRASQDVSSVVAWYQQKPGKAPKLLIYSASYRYTGVPSRFSGSGSGTDFTLTISSLQPEDFATYYCQQHYSTPWTFGGGTKLEIKGGGSGGGGQVQLVQSGAEVKKPGASVKVSCKASGYSFTSYWMNWVRQAPGQGLEWIGVIHPSDSETWLDQKFKDRVTITVDKSTSTAYMELSSLRSEDTAVYYCAREHYGTSPFAYWGQGTLVTVSSGGCGGGEVAACEKEVAALEKEVAALEKEVAALEKESKYGPPCPPCPAPEFLGGPSVFLFPPKPKDTLYITREPEVTCVVVDVSQEDPEVQFNWYVDGVEVHNAKTKPREEQFNSTYRVVSVLTVLHQDWLNGKEYKCKVSNKGLPSSIEKTISKAKGQPREPQVYTLPPSQEEMTKNQVSLTCLVKGFYPSDIAVEWESNGQPENNYKTTPPVLDSDGSFFLYSRLTVDKSRWQEGNVFSCSVMHEALHNHYTQKSLSLSLG", "chain 2": "EIVLTQSPATLSLSPGERATLSCRASESVDNYGMSFMNWFQQKPGQPPKLLIHAASNQGSGVPSRFSGSGSGTDFTLTISSLEPEDFAVYFCQQSKEVPYTFGGGTKVEIKGGGSGGGGQVQLVQSGAEVKKPGASVKVSCKASGYTFTDYNMDWVRQAPGQGLEWMGDINPDNGVTIYNQKFEGRVTMTTDTSTSTAYMELRSLRSDDTAVYYCAREADYFYFDYWGQGTTLTVSSGGCGGGKVAACKEKVAALKEKVAALKEKVAALKE"}, "B3": {"name": "hLAG-3 mAb 1 (1.4) IgG4 (P) (antibody, V domains shown)", "VH": "QVQLVQSGAEVKKPGASVKVSCKASGYTFTNYGMNWVRQAPGQGLEWMGWINTYTGESTYADDFEGRFVFSMDTSASTAYLQISSLKAEDTAVYYCARESLYDYYSMDYWGQGTTVTVSS", "VL": "DIVMTQTPLSLSVTPGQPASISCKSSQSLLHSDAKTYLNWLLQKPGQPPERLIYLVSELDSGVPDRFSGSGSGTDFTLKISRVEAEDVGVYYCWQGTHFPYTFGGGTKVEIK"}, "B4": {"name": "BSAB A (bispecific antibody)", "heavy 1": "QVQLVQSGAEVKKPGASVKVSCKASGYSFTSYWMNWVRQAPGQGLEWIGVIHPSDSETWLDQKFKDRVTITVDKSTSTAYMELSSLRSEDTAVYYCAREHYGTSPFAYWGQGTLVTVSSASTKGPSVFPLAPSSKSTSGGTAALGCLVKDYFPEPVTVSWNSGALTSGVHTFPAVLQSSGLYSLSSVVTVPSSSLGTQTYICNVNHKPSNTKVDKRVEPKSCEKTHTCPECPAPEAAGGPSVFLFPPKPKDTLMISRTPEVTCVVVDVSHEDPEVKFNWYVDGVEVHNAKTKPREEQYNSTYRVVSVLTVLHQDWLNGKEYKCKVSNKALPAPIEKTISKAKGQPREPQVYTLPPSREEMTKNQVSLTCEVKGFYPSDIAVEWESNGQPENNYKTTPPVLDSDGSFFLYSKLTVDKSRWQQGNVFSCSVMHEALHNHYTQKSLSLSPG", "light 1": "EIVLTQSPATLSLSPGERATLSCRASESVDNYGMSFMNWFQQKPGQPPKLLIHAASNQGSGVPSRFSGSGSGTDFTLTISSLEPEDFAVYFCQQSKEVPYTFGGGTKVEIKRTVAAPSVFIFPPSDEQLKSGTASVVCLLNNFYPREAKVQWKVDNALQSGNSQESVTEQDSKDSTYSLSSTLTLSKADYEKHKVYACEVTHQGLSSPVTKSFNRGEC", "heavy 2": "QVQLVQSGAEVKKPGASVKVSCKASGYTFTNYGMNWVRQAPGQGLEWMGWINTYTGESTYADDFEGRFVFSMDTSASTAYLQISSLKAEDTAVYYCARESLYDYYSMDYWGQGTTVTVSSASTKGPSVFPLAPSSKSTSGGTAALGCLVKDYFPEPVTVSWNSGALTSGVHTFPAVLQSSGLYSLSSVVTVPSSSLGTQTYICNVNHKPSNTKVDKRVEPKSCRKTHTCPRCPAPEAAGGPSVFLFPPKPKDTLMISRTPEVTCVVVDVSHEDPEVKFNWYVDGVEVHNAKTKPREEQYNSTYRVVSVLTVLHQDWLNGKEYKCKVSNKALPAPIEKTISKAKGQPREPQVYTLPPSREEMTKNQVSLTCLVKGFYPSDIAVEWESNGQPENNYKTTPPVLDSDGSFFLYSRLTVDKSRWQQGNVFSCSVMHEALHNHYTQKSLSLSPG", "light 2": "DIVMTQTPLSLSVTPGQPASISCKSSQSLLHSDAKTYLNWLLQKPGQPPERLIYLVSELDSGVPDRFSGSGSGTDFTLKISRVEAEDVGVYYCWQGTHFPYTFGGGTKVEIKRTVAAPSVFIFPPSDEQLKSGTASVVCLLNNFYPREAKVQWKVDNALQSGNSQESVTEQDSKDSTYSLSSTLTLSKADYEKHKVYACEVTHQGLSSPVTKSFNRGEC"}}, "key": {"[1]": {"target": "T1, biotinylated-soluble human LAG-3-Fc fusion protein (human, UniProt P18627 23-450, biotinylated (site not stated))", "T1 construct": "whole entry named; also called shLAG-3; shLAG-3-Fc; not shown: Fc", "T1 sequence": "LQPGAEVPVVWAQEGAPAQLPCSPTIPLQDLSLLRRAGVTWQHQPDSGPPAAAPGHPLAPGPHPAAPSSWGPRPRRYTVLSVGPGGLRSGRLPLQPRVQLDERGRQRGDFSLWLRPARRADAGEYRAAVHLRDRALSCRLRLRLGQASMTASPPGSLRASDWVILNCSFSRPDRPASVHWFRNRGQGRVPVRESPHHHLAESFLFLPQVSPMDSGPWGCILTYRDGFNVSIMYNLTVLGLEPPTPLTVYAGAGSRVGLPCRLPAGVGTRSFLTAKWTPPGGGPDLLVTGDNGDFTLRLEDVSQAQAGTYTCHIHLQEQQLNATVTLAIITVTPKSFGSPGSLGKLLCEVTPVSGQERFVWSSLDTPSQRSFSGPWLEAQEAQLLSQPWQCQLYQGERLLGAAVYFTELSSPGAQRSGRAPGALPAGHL", "assay": "FACS: inhibition of shLAG-3-Fc binding to MHC II on Daudi cells (column head prints EC50); SM; SD 4.9817"}, "[2]": {"target": "T2, human PD-1 expressed on the surface of cells (NSO cells expressing human PD-1; MNFAT-luc2/PD-1 Jurkat cells) (human, UniProt Q15116 21-288)", "T2 construct": "also called cell surface PD-1; PDCD1 transfected NSO cells expressing PD-1", "T2 sequence (Q15116 21-288)": "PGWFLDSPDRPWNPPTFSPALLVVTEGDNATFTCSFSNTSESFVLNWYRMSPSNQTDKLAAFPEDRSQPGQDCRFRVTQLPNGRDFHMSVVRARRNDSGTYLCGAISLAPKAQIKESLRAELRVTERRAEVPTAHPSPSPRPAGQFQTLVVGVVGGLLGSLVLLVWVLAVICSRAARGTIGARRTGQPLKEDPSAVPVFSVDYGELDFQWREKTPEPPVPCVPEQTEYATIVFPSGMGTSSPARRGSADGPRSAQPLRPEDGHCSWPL", "assay": "FACS: inhibition of sPD-L1 binding to PD-1 on NSO cells; SM; SD 0.1018"}, "[3]": {"target": "T2, human PD-1 expressed on the surface of …", "assay": "FACS: inhibition of sPD-L2 binding to PD-1 on NSO cells; SM; SD 3.6847"}, "[4]": {"target": "T3, human LAG-3 expressed on NSO cells (human, UniProt P18627 29-525)", "T3 sequence": "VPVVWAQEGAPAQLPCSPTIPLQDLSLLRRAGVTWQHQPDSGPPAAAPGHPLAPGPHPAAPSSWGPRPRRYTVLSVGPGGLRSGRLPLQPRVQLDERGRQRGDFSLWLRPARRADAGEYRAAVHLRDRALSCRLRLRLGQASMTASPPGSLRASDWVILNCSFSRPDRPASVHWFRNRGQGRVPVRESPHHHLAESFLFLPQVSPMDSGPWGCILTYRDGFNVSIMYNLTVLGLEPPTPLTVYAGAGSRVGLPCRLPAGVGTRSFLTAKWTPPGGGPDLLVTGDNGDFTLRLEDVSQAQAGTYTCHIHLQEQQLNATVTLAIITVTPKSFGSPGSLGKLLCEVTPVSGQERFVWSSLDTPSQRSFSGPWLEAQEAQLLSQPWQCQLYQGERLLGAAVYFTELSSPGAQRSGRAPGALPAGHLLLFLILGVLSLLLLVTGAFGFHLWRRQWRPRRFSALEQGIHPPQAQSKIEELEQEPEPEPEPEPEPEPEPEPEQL", "assay": "FACS saturation binding to NSO cells expressing LAG-3; single experiment"}, "[5]": {"target": "T2, human PD-1 expressed on the surface of …", "assay": "FACS saturation binding to NSO cells expressing PD-1; single experiment"}, "[6]": {"target": "T2, human PD-1 expressed on the surface of …", "assay": "FACS saturation binding to NSO cells expressing PD-1; SM; SD 0.4890"}, "[7]": {"target": "T1, biotinylated-soluble human LAG-3-Fc …", "assay": "FACS: inhibition of shLAG-3-Fc binding to MHC II on Daudi cells (column head prints EC50); SM; SD 0.1549"}, "[8]": {"target": "T3, human LAG-3 expressed on NSO cells", "assay": "FACS saturation binding to NSO cells expressing LAG-3; SM; SD 0.0547"}, "[9]": {"target": "T2, human PD-1 expressed on the surface of …", "assay": "FACS: inhibition of sPD-L1 binding to PD-1 on NSO cells; SM; SD 0.1302"}, "[10]": {"target": "T2, human PD-1 expressed on the surface of …", "assay": "FACS: inhibition of sPD-L2 binding to PD-1 on NSO cells; SM; SD 0.3125"}, "[11]": {"target": "T3, human LAG-3 expressed on NSO cells", "assay": "FACS saturation binding to NSO cells expressing LAG-3; SM; SD 0.1969"}, "[12]": {"target": "T1, biotinylated-soluble human LAG-3-Fc …", "assay": "FACS: inhibition of shLAG-3-Fc binding to MHC II on Daudi cells (column head prints EC50); SM; SD 0.2176"}, "[13]": {"target": "T1, biotinylated-soluble human LAG-3-Fc …", "assay": "FACS: inhibition of shLAG-3-Fc binding to MHC II on Daudi cells (column head prints EC50); SM; SD 0.0571"}, "[14]": {"target": "T2, human PD-1 expressed on the surface of …", "assay": "FACS: inhibition of sPD-L2 binding to PD-1 on NSO cells; SM; SD 0.5438"}, "[15]": {"target": "T2, human PD-1 expressed on the surface of …", "assay": "FACS: inhibition of sPD-L1 binding to PD-1 on NSO cells; SM; SD 0.3097"}}}
{"binder": "B1", "values": [{"measurement": "IC50", "setting": "[1]", "result": 2900, "unit": "nM"}, {"measurement": "IC50", "setting": "[2]", "result": 3400, "unit": "nM"}, {"measurement": "IC50", "setting": "[3]", "result": 6210, "unit": "nM"}, {"measurement": "EC50", "setting": "[4]", "result": 2380, "unit": "nM"}, {"measurement": "EC50", "setting": "[5]", "result": 4530, "unit": "nM"}, {"measurement": "EC90", "setting": "[5]", "result": 22700, "unit": "nM"}]}
{"binder": "B2", "values": [{"measurement": "EC50", "setting": "[6]", "result": 1320, "unit": "nM"}, {"measurement": "IC50", "setting": "[7]", "result": 486, "unit": "nM"}, {"measurement": "EC50", "setting": "[8]", "result": 532, "unit": "nM"}, {"measurement": "IC50", "setting": "[9]", "result": 836, "unit": "nM"}, {"measurement": "IC50", "setting": "[10]", "result": 1290, "unit": "nM"}]}
{"binder": "B3", "values": [{"measurement": "EC50", "setting": "[11]", "result": 1010, "unit": "nM"}, {"measurement": "IC50", "setting": "[12]", "result": 482, "unit": "nM"}]}
{"binder": "B4", "values": [{"measurement": "IC50", "setting": "[13]", "result": 710, "unit": "nM"}, {"measurement": "IC50", "setting": "[14]", "result": 4880, "unit": "nM"}, {"measurement": "IC50", "setting": "[15]", "result": 2160, "unit": "nM"}]}
